Reference: paper PMC4238996 (PLoS Neglected Tropical Diseases, 2014)

T1: GST-tagged MupFHA (Mup018c, residues 1-362), wild type (M. ulcerans Agy99 (plasmid pMUM001), UniProt Q6MZ86 1-362)
T1 construct: also called MupFHA^wt; GST-MupFHA
T1 sequence: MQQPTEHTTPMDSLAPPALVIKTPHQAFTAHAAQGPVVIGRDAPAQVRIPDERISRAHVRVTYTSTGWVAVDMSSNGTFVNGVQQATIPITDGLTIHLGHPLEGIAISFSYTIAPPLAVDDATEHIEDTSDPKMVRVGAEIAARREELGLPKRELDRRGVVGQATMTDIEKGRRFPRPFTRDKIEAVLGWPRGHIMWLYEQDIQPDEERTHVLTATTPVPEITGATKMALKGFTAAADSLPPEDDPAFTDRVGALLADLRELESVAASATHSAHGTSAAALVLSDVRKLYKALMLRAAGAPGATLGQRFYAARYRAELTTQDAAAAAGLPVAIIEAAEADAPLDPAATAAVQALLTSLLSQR


Biological target: T1, GST-tagged MupFHA (Mup018c, residues …)
Experiment: ELISA
Settings: both partners purified

Binder	binding result
MBP-tagged MupDivIVA S43/45/49A triple mutant (natural protein) MSHSELLDPALPKSPFGKQGYRYDDVDVFLRLIADELQGSDLAEADIHAITFRCAAPLTRGYDTESVDRFLDRIAETIARGHGDEGQ	binds
MBP-tagged MupDivIVA-P (Mup012c residues 1-87, phosphorylated by co-expression with PknQ) (natural protein, M. ulcerans Agy99 (plasmid pMUM001), UniProt Q6MZ92 1-87, looked up, also called phosphorylated MupDivIVA) MSHSELLDPALPKSPFGKQGYRYDDVDVFLRLIADELQGSDLSESDIHSITFRCAAPLTRGYDTESVDRFLDRIAETIARGHGDEGQ	binds
